Laboratory results taken from patent publication US20180021429A1, “ANTICANCER AGENTS OR ANTIMETASTATIC AGENTS USING FSTL1 AND COMBINATION DRUG THEREOF” (PHARMA FOODS INTERNATIONAL CO., LTD., priority 2015, published 2018).

Experiments:
FSTL1 = molecular target: T1, FSTL1 (Homo sapiens, UniProt Q12841); assay: Treg induction inhibitory activity using human peripheral blood cells stimulated with FSTL1; assay type: cell-based; parameters: purchased R&D Systems, Inc. 1694-FN-050; conditions: human PBMCs; FSTL1 5 ng/ml; antibody 5 μg/mL; 3 days
T1 sequence (Q12841 21-308): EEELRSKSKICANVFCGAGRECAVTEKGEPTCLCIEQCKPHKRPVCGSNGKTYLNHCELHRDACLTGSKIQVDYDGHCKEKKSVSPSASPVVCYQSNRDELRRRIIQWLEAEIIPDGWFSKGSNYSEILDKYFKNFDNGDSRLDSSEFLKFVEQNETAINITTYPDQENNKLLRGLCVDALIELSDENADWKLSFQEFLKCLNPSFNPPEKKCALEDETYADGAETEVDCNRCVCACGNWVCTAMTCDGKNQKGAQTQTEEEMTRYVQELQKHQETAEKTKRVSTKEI
Procedure: Human peripheral blood cells (1×10^6 cells) were stimulated using FSTL1 (5 ng/ml), supplemented with the antibody (5 μg/mL), and cultured for 3 days. The percentage of a Foxp3^+CTLA4^+ cell fraction (Exp. 1) or a CD4^+Foxp3^+CTLA4^+ cell fraction (Exp. 2) in CD4^+ T cells was analyzed as Treg cells by flow cytometry. The flow cytometry conditions are as follows.
Blood was collected from a healthy person by the addition of a 1/10 amount of 4% sodium citrate, then layered on Ficoll (specific gravity: 1.090), and centrifuged (1500 rpm, 20 min, room temperature), and a cell fraction present in an intermediate layer was used as “PBMCs”. The antibody (5 μg/mL) was added to a system in which these PBMCs (1×10^6 cells) were cultured for 3 days under stimulation with FSTL1 (5 ng/ml) in a 24-well plate. […] Then, the percentage of a Foxp3+CTLA4+ cell fraction (Exp. 1) or a CD4^+Foxp3^+CTLA4^+ cell fraction (Exp. 2) in CD4+ T cells contained therein was analyzed as Treg cells using a flow cytometer FACScan (Becton, Dickinson and Company).
Human peripheral blood cells (1×10^6 cells) were stimulated using FSTL1 (5 ng/ml), supplemented with the antibody (5 μg/mL), and cultured for 3 days. The percentage of a Foxp3^+ CTLA4^+ cell fraction (Exp. 1) or a CD4^+Foxp3^+CTLA4^+ cell fraction (Exp. 2) in CD4^+ T cells was analyzed as Treg cells by flow cytometry. […]

Panc1-snail+ = assay: Action of anti-FSTL1 antibody on Panc1-snail+ cells forced to express Snail (invasion, CCR2 and RANKL expression); assay type: cell-based, human; conditions: antibody 5 μg/ml
Procedure: Cell invasion was evaluated in the presence of the anti-FSTL1 antibody (#6-55, 5 μg/ml) or a control antibody (aHema, 5 μg/ml) in a chamber using Panc1-snail+, a cell line forced to express Snail, instead of the FSTL1-stimulated tumor cells of the preceding paragraph.
In this Example, Panc1-snail+ cells were cultured for 3 days in the presence of the added antibody. Then, the expression of CCR2 and RANKL among molecules known as bone metastasis markers was analyzed by flow cytometry. […] The anti-FSTL1 antibody presumably has inhibitory activity against cell invasion (FIG. 50D).
In this Example, Panc1-snail+ cells were cultured for 3 days in the presence of the added antibody. Then, the expression of CCR2 and RANKL among molecules known as bone metastasis markers was analyzed by flow cytometry. […] The anti-FSTL1 antibody presumably has inhibitory activity against cell invasion (FIG. 82D).

human FSTL1 = molecular target: T2, human FSTL1 (Homo sapiens, UniProt Q12841); assay: ELISA binding activity of purified antibody against human FSTL1; conditions: FIG. 95B
T2 construct: AAA linker + 10xHis (C); made in house; host or cells: Expi293 (transient expression; purified from culture supernatant on HisPur Cobalt Resin)
T2 sequence (Q12841 with tags, fused parts or gaps): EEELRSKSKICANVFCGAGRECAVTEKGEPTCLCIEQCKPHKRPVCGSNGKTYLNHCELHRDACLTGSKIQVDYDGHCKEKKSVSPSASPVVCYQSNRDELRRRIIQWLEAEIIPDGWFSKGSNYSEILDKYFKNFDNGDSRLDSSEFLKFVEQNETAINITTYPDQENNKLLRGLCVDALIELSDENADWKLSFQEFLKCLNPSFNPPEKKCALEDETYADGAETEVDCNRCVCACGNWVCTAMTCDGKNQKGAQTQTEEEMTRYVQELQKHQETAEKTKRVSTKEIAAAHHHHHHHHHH
Procedure: The reactivity of the obtained antibody clones described above with FSTL1 was evaluated by ELISA under the following conditions.
(Table 2 ELISA Conditions for Binding Activity Evaluation of Purified Antibody)
Antibodies used: anti-dinitrophenyl (DNP) antibody (negative control), #5-2, #5-3, #5-8, #5-10, #5-43, #6-55, and #7-34
FIGS. 96 and 97 show results of evaluating binding activity under the condition of Table 3 as to clones differing in screening and antibody purification timings.
(Table 3 ELISA Conditions for Binding Activity Evaluation of Purified Antibody)

mouse bone marrow cells = assay: Ability of FSTL1-induced MSCs to differentiate into adipocytes (Examples 14, 16); assay type: cell-based; conditions: Example 16; antibody 20.0-2.5 μg/ml; FIG. 104B
Procedure: The antibody clone (#6-55, #7, #10, #13, or #22) was evaluated for its activity by the same testing method as in Example 13. #6-55 was set as a positive control for activity. […] Mouse bone marrow cells were supplemented with FSTL1 and the predetermined concentration of each antibody and cultured for 8 days. 5×10^4 cells/well were separated from each culture system and evaluated for the ability to differentiate into adipocytes using an adipocyte differentiation reagent included in “Mesenchymal Stem Cell Functional Identification Kit (R&D Systems, Inc., Cat. No. SC010)”. For the evaluation method, the cells were supplemented with the adipocyte differentiation reagent and cultured for 8 days. Then, adipocytes per culture system were counted under a microscope for evaluation. […]
In the same way as in Example 15, mouse bone marrow cells were supplemented with FSTL1 and the predetermined concentration of each antibody and cultured for 8 days. 5×10^4 cells/well were separated from each culture system and evaluated for the ability to differentiate into adipocytes using an adipocyte differentiation reagent included in “Mesenchymal Stem Cell Functional Identification Kit (R&D Systems, Inc., Cat. No. SC010)”. […] Then, adipocytes per culture system were counted under a microscope for evaluation (FIG. 104B). […]

B1: #6-55: chicken-mouse chimeric anti-FSTL1 antibody clone; variable regions SEQ ID NO: 783 (light), 785 (heavy) (antibody, V domains shown)
VH: AVTLDESGGGLQTPGGALSLVCKGSGFTFTSVTMQWVRQAPGKGLEWVASVCSGSSTYYAPAVKGRATISRDNGQSTVRLQLSNLRPEDTGTYYCAKIAGRARWSCTSAAYNIDAWGHGTEVIVSS
VL: ASTQPSSVSAIPGETVKITCSGGGNNYGWYQQRSPGSAPVTVIYYNDNRPSNIPSRFSGSTSGSTSTLTITGVQADDEAIYYCGSWDSNTDSGIFGAGTTLTVL
modifications: mouse constant regions
B1 was tested. Which “Treg induction caused by FSTL1 (Foxp3+CTLA4+ fraction in CD4+ T cells)” value (FSTL1) did it give?
The value was “significantly suppressed”.

And the cell invasion (Panc1-snail+)?
Its cell invasion is “suppressive activity was able to be confirmed”.

And the “binding activity against human FSTL1” value (human FSTL1)?
The value was “specific and equivalently strong binding activity”.

And the “cells differentiating into adipocytes” value (mouse bone marrow cells)?
Its value is “decreased in number by the addition of #6-55 in a dose-dependent manner”.
